Measured values: patent publication US20170081400A1 (CEPHALON, published 2017)
Positions count from the first letter of the chain named.

T1: human TL1A extracellular domain with N-terminal HIS and FLAG tag (human, UniProt O95150 72-251)
T1 construct: the whole entry is named; also called TNFSF15
T1 sequence: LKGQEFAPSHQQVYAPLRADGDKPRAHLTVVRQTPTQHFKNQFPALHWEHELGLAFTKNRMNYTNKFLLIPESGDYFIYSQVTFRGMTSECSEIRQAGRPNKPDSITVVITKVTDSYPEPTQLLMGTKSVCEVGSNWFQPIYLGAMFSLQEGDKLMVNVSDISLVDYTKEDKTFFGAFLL

B1: 320-492 (antibody, human IgG1, name in Kabat numbering, V domains shown)
VH: QVQLVQSGAEVKKPGASVKVSCKASGYTFTSYDINWVRQAPGQGLEWMGWQNPNSGNTGYAQKFQGRVTMTADRSTSTAYMELSSLRSEDTAVYYCAREVPETAAFEYWGQGTLVTVSS
VL: QSVLTQPPSVSGAPGQRVTISCTSSSSDIGAGLGVHWYQQLPGTAPKLLIEGYYNRPSGVPDRFSGSKSGTSASLTITGLLPEDEGDYYCQSYDGTLSALFGGGTKLTVLG
notes: full-length human IgG1, lambda
B2: 320-493 (antibody, human IgG1, name in Kabat numbering, V domains shown)
VH: B1 VH with Q51D
VL: B1 VL
notes: as for B1
B3: 320-494 (antibody, human IgG1, name in Kabat numbering, V domains shown)
VH: B1 VH with Q51H
VL: B1 VL
notes: as for B1
B4: 320-495 (antibody, human IgG1, name in Kabat numbering, V domains shown)
VH: B1 VH with Q51K
VL: B1 VL
notes: as for B1
B5: 320-496 (antibody, human IgG1, name in Kabat numbering, V domains shown)
VH: B1 VH with Q51W
VL: B1 VL
notes: as for B1
B6: 320-497 (antibody, human IgG1, name in Kabat numbering, V domains shown)
VH: B1 VH with Q51L, N52A
VL: B1 VL
notes: as for B1
B7: 320-498 (antibody, human IgG1, name in Kabat numbering, V domains shown)
VH: B1 VH with Q51L, N52S
VL: B1 VL
notes: as for B1
B8: 320-499 (antibody, human IgG1, name in Kabat numbering, V domains shown)
VH: B1 VH with Q51L, N52Q
VL: B1 VL
notes: as for B1
B9: 320-500 (antibody, human IgG1, name in Kabat numbering, V domains shown)
VH: B1 VH with Q51L, N52D
VL: B1 VL
notes: as for B1
B10: 320-501 (antibody, human IgG1, name in Kabat numbering, V domains shown)
VH: B1 VH with Q51L, N52H
VL: B1 VL
notes: as for B1
B11: 320-502 (antibody, human IgG1, name in Kabat numbering, V domains shown)
VH: B1 VH with Q51L, N52K
VL: B1 VL
notes: as for B1
B12: 320-503 (antibody, human IgG1, name in Kabat numbering, V domains shown)
VH: B1 VH with Q51L, N52W
VL: B1 VL
notes: as for B1
B13: 320-504 (antibody, human IgG1, name in Kabat numbering, V domains shown)
VH: B1 VH with Q51L, N52Y
VL: B1 VL
notes: as for B1
B14: 320-505 (antibody, human IgG1, name in Kabat numbering, V domains shown)
VH: B1 VH with Q51L, P53A
VL: B1 VL
notes: as for B1
B15: 320-506 (antibody, human IgG1, name in Kabat numbering, V domains shown)
VH: B1 VH with Q51L, P53S
VL: B1 VL
notes: as for B1

What was measured:
[1] = target: T1, human TL1A extracellular domain with …; assay: SPR Run 7, antibody on Protein A, TL1A 5 ug/mL, timepoint 44
Description: (§1) 1.5. Antibody expression and antigen binding as determined by SPR. Using a CM5 sensor chip (GE Healthcare) Protein A (Pierce) was coupled to the chip surface using an amine coupling kit (GE Healthcare). Protein A was coupled on flow cell 1 and 2 (or alternatively 3 and 4) using a BIACORE® T200. […] The amount of supernatant or purified protein (as well as the concentration) injected during the capture stage varied between runs and is specified in the header of the Tables 3-11. At the end of injection of the supernatant or purified antibody the change in response units was measured. This value was reported as Capture Level in Tables 3-11. […] The response units were measured prior to the end of the dissociation phase. […] The sensorgrams were double referenced (flow cell 2 is subtracted from flow cell 1 and a buffer blank). As there were a large number of antibody variants to screen, these were screened across different runs (Tables 3-11). […] A summary of the conditions used in each run is below:
(§2) 2.1. […] In some experiment the antibodies were purified using Protein A chromatography (See 1.4) and purified antibodies were used in BIACORE® (GE Healthcare) experiments.

[2] = target: T1, human TL1A extracellular domain with …; assay: SPR Run 7, antibody on Protein A, TL1A 5 ug/mL, timepoint 220
Description: as §1, §2

Binder | TL1A Binding Level (Early) [1] | TL1A Binding Level (Late) [2]
B1 | 89 RU | 82 RU
B2 | 48 RU | 46 RU
B3 | 150 RU | 138 RU
B4 | 84 RU | 77 RU
B5 | 93 RU | 87 RU
B6 | 135 RU | 125 RU
B7 | 90 RU | 82 RU
B8 | 122 RU | 113 RU
B9 | 69 RU | 53 RU
B10 | 118 RU | 108 RU
B11 | 88 RU | 59 RU
B12 | 41 RU | 6 RU
B13 | 88 RU | 65 RU
B14 | 118 RU | 110 RU
B15 | 97 RU | 89 RU
